This is an account of results in patent publication US20140193417A1 (LUDWIG INSTITUTE FOR CANCER RESEARCH, published 2014).

For one experiment, the target named is T1, murine NaPi2b protein (mouse, UniProt Q9DBP0 1-697).
T1 construct: also called the murine protein; murine counterpart
T1 sequence (looked up): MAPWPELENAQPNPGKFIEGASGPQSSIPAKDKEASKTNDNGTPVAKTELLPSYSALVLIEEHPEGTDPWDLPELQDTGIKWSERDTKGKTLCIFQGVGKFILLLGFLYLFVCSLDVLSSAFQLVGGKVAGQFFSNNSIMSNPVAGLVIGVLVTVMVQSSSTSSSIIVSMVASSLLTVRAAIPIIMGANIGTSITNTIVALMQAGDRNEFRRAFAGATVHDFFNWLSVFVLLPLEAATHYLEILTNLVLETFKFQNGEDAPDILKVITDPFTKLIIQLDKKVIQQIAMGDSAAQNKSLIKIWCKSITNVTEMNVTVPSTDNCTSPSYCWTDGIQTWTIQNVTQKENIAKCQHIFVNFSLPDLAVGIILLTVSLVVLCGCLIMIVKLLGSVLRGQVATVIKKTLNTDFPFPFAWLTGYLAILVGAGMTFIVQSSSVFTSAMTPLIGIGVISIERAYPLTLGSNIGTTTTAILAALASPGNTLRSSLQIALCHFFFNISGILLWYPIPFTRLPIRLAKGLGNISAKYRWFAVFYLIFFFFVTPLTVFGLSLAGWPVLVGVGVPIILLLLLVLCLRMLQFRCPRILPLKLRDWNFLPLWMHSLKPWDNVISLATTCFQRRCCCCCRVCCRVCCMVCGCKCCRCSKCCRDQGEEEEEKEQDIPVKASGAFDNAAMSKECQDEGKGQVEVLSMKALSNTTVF
Put plainly: Western blot of mouse tissues (data not shown).

Experiment [1] deals with T2, His-NaPi2b-ECD (His-tagged aa 188-361 of NaPi2b, Sf9 insect cells) (human, UniProt O95436 188-361).
T2 construct: range 188-361; Baculovirus expression; also called His-tagged protein in Sf9 insect cells; not shown: His tag
T2 sequence (looked up): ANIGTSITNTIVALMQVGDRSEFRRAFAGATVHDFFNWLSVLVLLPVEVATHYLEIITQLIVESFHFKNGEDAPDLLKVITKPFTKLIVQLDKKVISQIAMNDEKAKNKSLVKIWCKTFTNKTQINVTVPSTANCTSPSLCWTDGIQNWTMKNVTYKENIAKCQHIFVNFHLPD
As to the kind of experiment: Western blot. (In general: A western blot detects proteins with antibodies after separation by electrophoresis.)

In experiment [2] the target is T3, GST/NaPi2b-L fusion protein (aa 188-361 of NaPi2b) (human, UniProt O95436 188-361).
T3 construct: range 188-361; GST is put first here (pGEX vector); also called GST-fusion protein (covering aa 188-361 of NaPi2b); bacterial fusion protein; not shown: glutathione S-transferase (GST) tag of vector pGEX4T1
T3 sequence (looked up): T2 sequence (looked up)
Put plainly: Western blot.

In experiment [3] the target is T4, NaPi2b mutant T330V expressed in stably transfected HEK293 cells (pcDNA3.1/NaPi2b-T330V) (human, UniProt O95436 1-690).
T4 construct: whole, on cells; Made by site-directed mutagenesis of pcDNA3.1/NaPi2b; also called mutant form T330V; not shown: EE-tag
T4 sequence (looked up): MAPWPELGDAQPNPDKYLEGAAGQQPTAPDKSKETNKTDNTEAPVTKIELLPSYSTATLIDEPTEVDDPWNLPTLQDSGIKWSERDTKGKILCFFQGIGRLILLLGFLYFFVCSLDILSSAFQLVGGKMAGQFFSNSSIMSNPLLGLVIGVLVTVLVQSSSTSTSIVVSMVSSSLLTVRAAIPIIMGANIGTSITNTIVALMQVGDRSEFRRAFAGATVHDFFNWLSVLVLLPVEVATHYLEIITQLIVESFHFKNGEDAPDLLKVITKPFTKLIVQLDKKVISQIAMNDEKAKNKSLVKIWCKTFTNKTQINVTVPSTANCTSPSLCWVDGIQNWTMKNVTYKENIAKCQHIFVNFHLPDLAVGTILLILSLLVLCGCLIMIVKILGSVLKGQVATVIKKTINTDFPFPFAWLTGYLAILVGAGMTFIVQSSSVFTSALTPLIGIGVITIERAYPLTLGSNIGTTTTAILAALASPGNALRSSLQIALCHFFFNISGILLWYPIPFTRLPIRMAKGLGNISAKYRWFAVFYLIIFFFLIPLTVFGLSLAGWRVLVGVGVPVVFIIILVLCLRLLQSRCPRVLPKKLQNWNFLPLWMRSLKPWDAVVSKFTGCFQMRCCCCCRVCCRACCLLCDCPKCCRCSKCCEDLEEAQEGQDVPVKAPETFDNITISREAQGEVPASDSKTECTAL
As to the kind of experiment: Western blot of lysates of stably transfected HEK293 cells. The protocol: Stably transfected HEK293 cells were lysed in buffer containing 10 mM Tris-HCl, pH 7.5, 150 mM NaCl, 10 mM MgCL₂, 0,5% NP-40, and a mixture of Halt Protease Inhibitor Cocktail (Pierce, USA). Protein concentration was measured by Bradford assay (Pierce, USA), and equal amounts of proteins (10 μg) were separated in 8% SDS-PAGE and blotted to polyvinylidene difluoride (PVDF) membrane (Millipore, USA). The membrane was blocked with 3% BSA in PBS (phosphate-saline buffer) containing 0.1% Tween-20 (PBST) for 1 h. Anti-NaPi2b and anti-EE-tag antibodies were incubated with membranes at 4° C. overnight. Generation of monoclonal antibodies against the extracellular loop of transporter was previously described. After washing with PBST, HRP-conjugated goat anti-mouse IgG 1:5000 (Promega, USA) was added to the membrane for 1 h at RT. Western blots were developed using the ECL system (Amersham, Sweden) and then exposed to Agfa X-ray film.
The expression of NaPi2b (wild type and mutant forms) in HEK293 was confirmed by Western blot analysis of total cell lysates with anti-EE monoclonal antibody (FIG. 22A) or anti-NaPi2b monoclonal antibodies (FIG. 22B).

In experiment [4] the target is T5, synthetic 29mer peptide representing amino acids 312-340 of the NaPi2b protein (human).
T5 construct: no end modifications stated
T5 peptide: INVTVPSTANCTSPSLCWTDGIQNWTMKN
Put plainly: peptide ELISA and dot blot.

Experiment [5] has as its target T6, GST/NaPi2b-4L fusion protein (311-340aa) (human, UniProt O95436 311-340).
T6 construct: Expressed in E. coli; not shown: glutathione S-transferase (GST) tag of vector pGEX4T1
T6 chain (looked up): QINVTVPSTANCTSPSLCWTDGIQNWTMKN
Put plainly: Western blot of truncated GST fusion proteins.

B1: Murine mAb MX35 (IgG1) (antibody, V domains shown)
VH: QVQLKQSGAELVKPGASVKMSCKASGYTFTGYNIHWVKQTPGQGLEWIGAIYPGNGDTSYKQKFRGKASLTADTSSSTVYMQLSSLTSEDSAVYYCARGETARATFAYWGQGTLVTVSA
VL: DIQMTQTTSSLPASLGDRVTISCSASQDIGNFLNWYQQKPDGTVKVLIYYTSSLYSGVPSRFSGSGSGTDYSLTISNLEPEDIATYYCQQYSKLPLTFGAGTKLELKR
notes: also called MX35 MAb; monoclonal antibody MX35
As to B1, the binding result with murine NaPi2b protein is “no binding”; in experiment [1], “binds”; in experiment [2], “binds”; in experiment [3], “no binding”; in experiment [4], “binds”; in experiment [5] it was “binds”.
